The source of these data is paper PMC3510486, “The structural basis for the interaction between the CAF1 nuclease and the NOT1 scaffold of the human CCR4–NOT deadenylase complex” (Nucleic Acids Research, 2012).

In the experiment the target is T1, Hs CAF1, purified for crystallization (human, UniProt Q9UIV1-1 1-285).
T1 construct: human CAF1 (CNOT7); model holds residues Q10-S266 and G274-E280 (chain B); residues up to E280 are seen in the map, so it is probably the whole protein; also called CNOT7; source: E. coli Rosetta2, purified (GSTrap, PreScission cleavage, gel filtration)
T1 sequence (Q9UIV1 whole entry, the tested form may be a part): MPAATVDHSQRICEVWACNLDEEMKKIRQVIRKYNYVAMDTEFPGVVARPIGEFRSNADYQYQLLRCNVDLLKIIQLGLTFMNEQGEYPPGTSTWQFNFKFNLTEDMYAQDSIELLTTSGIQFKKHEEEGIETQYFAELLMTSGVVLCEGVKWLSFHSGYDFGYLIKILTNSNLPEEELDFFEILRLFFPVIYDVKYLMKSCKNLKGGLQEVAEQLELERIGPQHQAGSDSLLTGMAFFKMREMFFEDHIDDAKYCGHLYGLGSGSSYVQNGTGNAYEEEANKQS
Description: crystal structure; complex of purified NOT1 MIF4G and CAF1 (1.2:1) isolated by gel filtration; hanging drop, 4°C, 0.1 M Tris-HCl pH 8.2, 16% PEG 8000, 0.2 M MgCl2, 0.2 M ammonium sulfate; 2.70 Å. The settings on record: both partners purified.

B1: MIF4G domain of Hs NOT1 (residues 1093-1317), purified for crystallization (domain or fragment, human, UniProt A5YKK6-1 1093-1317, looked up)
chain: ENIQEKIAFIFNNLSQSNMTQKVEELKETVKEEFMPWVSQYLVMKRVSIEPNFHSLYSNFLDTLKNPEFNKMVLNETYRNIKVLLTSDKAAANFSDRSLLKNLGHWLGMITLAKNKPILHTDLDVKSLLLEAYVKGQQELLYVVPFVAKVLESSIRSVVFRPPNPWTMAIMNVLAELHQEHDLKLNLKFEIEVLCKNLALDINELKPGNLLKDKDRLKNLDEQLS
notes: His6 fusion is PreScission-cleavable; also called NOT1 MIF4G domain; source: E. coli BL21 Codon Plus RIL, purified (Ni Sepharose IMAC, gel filtration)
Take B1: the binding result was “binds”.
